Test results published in patent US20230313190.

Molecular target: T1, Flag-Atxn1-82Q-HA, P54253
T1 chain: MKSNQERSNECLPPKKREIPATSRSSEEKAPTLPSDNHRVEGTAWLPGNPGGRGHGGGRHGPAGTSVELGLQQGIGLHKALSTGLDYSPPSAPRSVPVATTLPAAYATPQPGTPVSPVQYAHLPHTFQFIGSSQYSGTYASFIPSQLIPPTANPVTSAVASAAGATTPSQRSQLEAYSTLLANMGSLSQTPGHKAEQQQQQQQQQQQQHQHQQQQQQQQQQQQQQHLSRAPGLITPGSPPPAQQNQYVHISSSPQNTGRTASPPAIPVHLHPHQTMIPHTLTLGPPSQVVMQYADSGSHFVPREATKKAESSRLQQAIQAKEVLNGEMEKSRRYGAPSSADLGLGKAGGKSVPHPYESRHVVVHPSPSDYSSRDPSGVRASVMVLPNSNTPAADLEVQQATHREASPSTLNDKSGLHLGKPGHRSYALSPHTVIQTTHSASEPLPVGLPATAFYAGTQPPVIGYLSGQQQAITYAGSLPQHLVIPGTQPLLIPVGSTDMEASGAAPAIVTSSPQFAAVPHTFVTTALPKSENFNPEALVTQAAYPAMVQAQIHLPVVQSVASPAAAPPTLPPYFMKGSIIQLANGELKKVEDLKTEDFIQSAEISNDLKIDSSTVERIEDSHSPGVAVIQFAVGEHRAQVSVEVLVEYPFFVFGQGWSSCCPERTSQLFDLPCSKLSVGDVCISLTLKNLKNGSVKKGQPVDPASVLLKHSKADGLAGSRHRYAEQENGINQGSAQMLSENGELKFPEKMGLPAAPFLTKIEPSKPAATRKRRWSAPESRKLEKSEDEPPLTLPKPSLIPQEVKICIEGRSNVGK

B1: GST-rRNF4 (protein)
chain: MSTRNPQRKRRGGAVNSRQTQKRTRETTSTPEISLEAEPIELVETVGDEIVDLTCESLEPVVVDLTHNDSVVIVEERRRPRRNGRRLRQDHADSCVVSSDDEELSKDKDVYVTTHTPRSTKDEGTTGLRPSGTVSCPICMDGYSEIVQNGRLIVSTECGHVFCSQCLRDSLKNANTCPTCRKKINHKRYHPIYI
With B1 the “in vitro ubiquitination assay” value was “the unmodified Atxn1 82Q protein was not ubiquitinated”.
